Data: paper PMC8955854, “The Peptide Hormone CNMa Influences Egg Production in the Mosquito Aedes aegypti” (Insects, 2022)
Positions of bridges follow the written chain, without caps; N, C: chain ends. No end group written: not given here.

How the values were obtained:
AeCNMaR-1b (AAEL018316) = AeCNMaR-1b (AAEL018316) (Aedes aegypti, UniProt A0A1S4G7J8); test: Receptor activation, aequorin luminescence in CHO-K1 aeq cells expressing AeCNMaR-1b; type: cell-based; details: CHO-K1 aeq cells, transient AeCNMaR-1b; luminescence over 10 s; 10 pM to 50 μM, quadruplicate; normalized to 50 µM AeCNMa; BSA assay media; read-out: EC50
Source text: The CNMa peptide was synthesized and HPLC purified (>90% purity) by Royobiotechs (Shanghai, China) based on the published sequence of the AeCNMa peptide sequence. Both the amidated (YMSLCHFKLCNMa) and the non-amidated (YMSLCHFKLCNM) were produced with a disulfide bridge between cysteines 5 and 10. The complete coding sequence of the two putative Ae. aegypti CNMa receptors (VectorBase genes AAEL024199 and AAEL018316, which we henceforth refer to as AeCNMaR-1a and AeCNMaR-1b, respectively) were commercially synthesized (Integrated DNA Technologies) and subsequently subcloned into a pcDNA3.1+ mammalian expression vector [24]. A Chinese hamster ovary cell line stably expressing the calcium-dependent bioluminescent protein aequorin (CHO-K1 aeq) was grown in Dulbecco’s modified eagles medium: nutrient F12 (DMEM:F12) media containing 10% heat-inactivated fetal bovine serum (FBS; Wisent, St. Bruno, QC, Canada), 200 μg/mL geneticin, and an antimycotic-antibiotic mixture as described previously. […]
Other Ae. aegypti peptides used in this study included “capability” (CAPA)-1 (GPTVGLFAFPRV-NH2), CAPA-2 (pQGLVPFPRV-NH2), AedaeCAPA-pyrokinin (PK) 1 (AGNSGANSGMWFGPRL-NH2), adipokinetic/corazonin-like peptide (ACP; pQVTFSRDWNA-NH2), adipokinetic hormone (AKH) (pQLTFTPSW-NH2), and corazonin (CRZ; pQTFQYSRGWTN-NH2). […] Single concentrations of the various peptides were loaded into individual wells of white 96-well luminescence plates (Greiner Bio-One, Frickenhausen, Germany) with each peptide concentration tested in quadruplicate. CHO-K1 aeq cells expressing either of the two AeCNMa receptors or mCherry were prepared for the functional assay, as described above, and injected into each well of the 96-well luminescence plates by an automated injector unit integrated with the Synergy 2 Multi-Mode Microplate Reader (BioTek, Winooski, VT, USA). The kinetic luminescent response was measured for 10 s immediately following the application of the cells into the wells containing the different peptide treatments or the negative (i.e., BSA media alone) or positive (i.e., 50 μM ATP) controls as described previously. Data was assembled in Microsoft Excel and then analyzed in GraphPad Prism 7.02 (GraphPad Software, San Diego, CA, USA) where the dose–response curves from multiple biological replicates were used to determine the half maximal effective concentrations (EC50).

AeCNMaR-1a (AAEL024199) = AeCNMaR-1a (AAEL024199) (Aedes aegypti, UniProt A0A6I8U3V2); test: Receptor activation, aequorin luminescence in CHO-K1 aeq cells expressing AeCNMaR-1a; type: cell-based; details: CHO-K1 aeq cells, transient AeCNMaR-1a; luminescence over 10 s; 10 pM to 50 μM, quadruplicate; normalized to 50 µM AeCNMa; BSA assay media; read-out: EC50
Source text: The CNMa peptide was synthesized and HPLC purified (>90% purity) by Royobiotechs (Shanghai, China) based on the published sequence of the AeCNMa peptide sequence. Both the amidated (YMSLCHFKLCNMa) and the non-amidated (YMSLCHFKLCNM) were produced with a disulfide bridge between cysteines 5 and 10. The complete coding sequence of the two putative Ae. aegypti CNMa receptors (VectorBase genes AAEL024199 and AAEL018316, which we henceforth refer to as AeCNMaR-1a and AeCNMaR-1b, respectively) were commercially synthesized (Integrated DNA Technologies) and subsequently subcloned into a pcDNA3.1+ mammalian expression vector [24]. A Chinese hamster ovary cell line stably expressing the calcium-dependent bioluminescent protein aequorin (CHO-K1 aeq) was grown in Dulbecco’s modified eagles medium: nutrient F12 (DMEM:F12) media containing 10% heat-inactivated fetal bovine serum (FBS; Wisent, St. Bruno, QC, Canada), 200 μg/mL geneticin, and an antimycotic-antibiotic mixture as described previously. When cells reached 80–90% confluency, they were transfected using Lipofectamine 3000 transfection reagent following manufacturer recommendations (Life Technologies, Burlington, ON, Canada) to transiently express a mammalian construct in pcDNA3.1+ containing either of the two candidate CNMa receptors or mCherry (pcDNA3.1+ mCherry was a gift from Scott Gradia, Addgene plasmid #30125), the latter of which served as a negative control for the receptor functional assay. After 48 h following transfection, CHO-K1 aeq cells were harvested by dislodging from culture flasks using Dulbecco’s PBS containing EDTA and subsequently resuspended in receptor assay media.
Other Ae. aegypti peptides used in this study included “capability” (CAPA)-1 (GPTVGLFAFPRV-NH2), CAPA-2 (pQGLVPFPRV-NH2), AedaeCAPA-pyrokinin (PK) 1 (AGNSGANSGMWFGPRL-NH2), adipokinetic/corazonin-like peptide (ACP; pQVTFSRDWNA-NH2), adipokinetic hormone (AKH) (pQLTFTPSW-NH2), and corazonin (CRZ; pQTFQYSRGWTN-NH2). Serial dilutions of the peptide stocks were prepared in bovine serum albumin (BSA) assay media (DMEM:F12 media + 0.1% BSA + 1× antibiotic-antimycotic) to test concentrations ranging from 10 pM to 50 μM. Single concentrations of the various peptides were loaded into individual wells of white 96-well luminescence plates (Greiner Bio-One, Frickenhausen, Germany) with each peptide concentration tested in quadruplicate. CHO-K1 aeq cells expressing either of the two AeCNMa receptors or mCherry were prepared for the functional assay, as described above, and injected into each well of the 96-well luminescence plates by an automated injector unit integrated with the Synergy 2 Multi-Mode Microplate Reader (BioTek, Winooski, VT, USA). The kinetic luminescent response was measured for 10 s immediately following the application of the cells into the wells containing the different peptide treatments or the negative (i.e., BSA media alone) or positive (i.e., 50 μM ATP) controls as described previously. Data was assembled in Microsoft Excel and then analyzed in GraphPad Prism 7.02 (GraphPad Software, San Diego, CA, USA) where the dose–response curves from multiple biological replicates were used to determine the half maximal effective concentrations (EC50).

Chain of AeCNMaR-1b (AAEL018316) (A0A1S4G7J8 entry or part of it): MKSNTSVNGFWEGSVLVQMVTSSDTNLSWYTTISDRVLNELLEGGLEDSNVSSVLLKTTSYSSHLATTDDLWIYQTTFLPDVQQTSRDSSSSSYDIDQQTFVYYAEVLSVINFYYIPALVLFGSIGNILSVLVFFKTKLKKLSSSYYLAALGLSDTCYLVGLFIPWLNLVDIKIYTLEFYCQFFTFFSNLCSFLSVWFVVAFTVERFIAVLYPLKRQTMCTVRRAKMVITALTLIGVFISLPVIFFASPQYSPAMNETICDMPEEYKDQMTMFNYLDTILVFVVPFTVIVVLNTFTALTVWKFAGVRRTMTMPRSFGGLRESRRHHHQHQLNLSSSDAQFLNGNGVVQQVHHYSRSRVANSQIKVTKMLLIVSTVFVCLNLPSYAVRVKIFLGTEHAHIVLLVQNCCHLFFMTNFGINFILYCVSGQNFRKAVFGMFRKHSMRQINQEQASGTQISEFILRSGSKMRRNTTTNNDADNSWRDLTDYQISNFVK
Chain of AeCNMaR-1a (AAEL024199) (A0A6I8U3V2 entry or part of it): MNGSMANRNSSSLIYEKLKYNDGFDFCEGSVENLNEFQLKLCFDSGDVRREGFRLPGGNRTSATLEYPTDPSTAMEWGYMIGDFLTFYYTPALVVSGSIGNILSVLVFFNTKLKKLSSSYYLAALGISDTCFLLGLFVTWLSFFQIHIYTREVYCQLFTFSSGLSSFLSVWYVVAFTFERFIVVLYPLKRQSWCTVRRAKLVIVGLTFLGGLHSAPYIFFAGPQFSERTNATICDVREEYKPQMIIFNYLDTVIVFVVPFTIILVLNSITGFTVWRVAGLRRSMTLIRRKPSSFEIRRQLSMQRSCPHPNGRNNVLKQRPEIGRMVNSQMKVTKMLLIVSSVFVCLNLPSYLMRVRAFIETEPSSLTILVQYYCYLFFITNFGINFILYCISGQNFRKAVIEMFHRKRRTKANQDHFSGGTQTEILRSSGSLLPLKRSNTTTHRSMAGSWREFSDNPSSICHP

Substance: YMSLCHFKLCNMa (disulfide) (YMSLCHFKLCNM-NH2; disulfide 5-10; N-terminus assumed; SMILES CSCC[C@H](NC(=O)[C@H](CC(N)=O)NC(=O)[C@@H]1CSSC[C@H](NC(=O)[C@H](CC(C)C)NC(=O)[C@H](CO)NC(=O)[C@H](CCSC)NC(=O)[C@@H](N)Cc2ccc(O)cc2)C(=O)N[C@@H](Cc2c[nH]cn2)C(=O)N[C@@H](Cc2ccccc2)C(=O)N[C@@H](CCCCN)C(=O)N[C@@H](CC(C)C)C(=O)N1)C(N)=O) [AeCNMa, Ae. aegypti CNMa peptide, amidated, HPLC purified (>90% purity)]
- EC50 (AeCNMaR-1b (AAEL018316)): 0.0518 µM
- EC50 (AeCNMaR-1a (AAEL024199)): 0.00517 µM
